Source: patent US20090117590A1, “Human calcium sensitive potassium channel beta3 subunit proteins, encoding nucleic acid and uses thereof” (priority 1999, published 2009)
Like-named read-outs stand apart in the source and are kept apart here.

B1: β1: previously known human calcium sensitive potassium channel β1 subunit, SEQ. ID. NO.:11, GenBank U25138 (protein)
chain: MVKKLVMAQKRGETRALCLGVTMVVCAVITYYILVTTVLPLYQKSVWTQESKCHLIETNIRDQEELKGKKVPQYPCLWVNVSAAGRWAVLYHTEDTRDQNQQCSYIPGSVDNYQTARADVEKVRAKFQEQQVFYCFSAPRGNETSVLFQRLYGPQALLFSLFWPTFLLTGGLLIIAMVKSNQYLSILAAQK
B2: β3d: β3d subunit of human calcium sensitive potassium channel, amino acid sequence SEQ. ID. NO.:10 (protein)
chain: MDFSPSSELGFHFVAFILLTRHRTAFPASGKKRETDYSDGDPLDVHKRLPSSTGEDRAVMLGFAMMGFSVLMFFLLGTTILKPFMLSIQREESTCTAIHTDIMDDWLDCAFTCGVHCHGQGKYPCLQVFVNLSHPGQKALLHYNEEAVQINPKCFYTPKCHQDRNDLLNSALDIKEFFDHKNGTPFSCFYSPASQSEDVILIKKYDQMAIFHCLFWPSLTLLGGALIVGMVRLTQHLSLLCEKYSTVVRDEVGGKVPYIEQHQFKLCIMRRSKGRAEKS
B3: β2: β2 subunit of human calcium sensitive potassium channel, amino acid sequence SEQ. ID. NO.:2 (protein, listed as Homo Sapiens)
chain: MFIWTSGRTSSSYRHDEKRNIYQKIRDHDLLDKRKTVTALKAGEDRAILLGLAMMVCSIMMYFLLGITLLRSYMQSVWTEESQCTLLNASITETFNCSFSCGPDCWKLSQYPCLQVYVNLTSSGEKLLLYHTEETIKINQKCSYIPKCGKNFEESMSLVNVVMENFRKYQHFSCYSDPEGNQKSVILTKLYSSNVLFHSLFWPTCMMAGGVAIVAMVKLTQYLSLLCERIQRINR
B4: β3a: β3a subunit of human calcium sensitive potassium channel, amino acid sequence SEQ. ID. NO.:4 (protein, listed as Homo Sapiens)
chain: MQPFSIPVQITLQGSRRRQGRTAFPASGKKRETDYSDGDPLDVHKRLPSSTGEDRAVMLGFAMMGFSVLMFFLLGTTILKPFMLSIQREESTCTAIHTDIMDDWLDCAFTCGVHCHGQGKYPCLQVFVNLSHPGQKALLHYNEEAVQINPKCFYTPKCHQDRSDLLNSALDIKEFFDHKNGTPFSCFYSPASQSEDVILIKKYDQMAIFHCLFWPSLTLLGGALIVGMVRLTQHLSLLCEKYSTVVRDEVGGKVPYIEQHQFKLCIMRRSKGRAEKS
B5: β3b: β3b subunit of human calcium sensitive potassium channel, amino acid sequence SEQ. ID. NO.:6 (protein, listed as Homo Sapiens)
chain: MTAFPASGKKRETDYSDGDPLDVHKRLPSSTGEDRAVMLGFAMMGFSVLMFFLLGTTILKPFMLSIQREESTCTAIHTDIMDDWLDCAFTCGVHCHGQGKYPCLQVFVNLSHPGQKALLHYNEEAVQINPKCFYTPKCHQDRNDLLNSALDIKEFFDHKNGTPFSCFYSPASQSEDVILIKKYDQMAIFHCLFWPSLTLLGGALIVGMVRLTQHLSLLCEKYSTVVRDEVGGKVPYIEQHQFKLCIMRRSKGRAEKS
B6: β3c: β3c subunit of human calcium sensitive potassium channel, amino acid sequence SEQ. ID. NO.:8 (protein)
chain: MFPLLYELTAVSPSPFPQRTAFPASGKKRETDYSDGDPLDVHKRLPSSTGEDRAVMLGFAMMGFSVLMFFLLGTTILKPFMLSIQREESTCTAIHTDIMDDWLDCAFTCGVHCHGQGKYPCLQVFVNLSHPGQKALLHYNEEAVQINPKCFYTPKCHQDRSDLLNSALDIKEFFDHKNGTPFSCFYSPASQSEDVILIKKYDQMAIFHCLFWPSLTLLGGALIVGMVRLTQHLSLLCEKYSTVVRDEVGGKVPYIEQHQFKLCIMRRSKGRAEKS

Assays:
[1] = tested on: α subunit of a human calcium sensitive potassium channel (human Slowpoke α); settings: previously described (McManus et al., 1995); cited from earlier work
[2] = tested on: α subunit of a human calcium sensitive potassium channel (human Slowpoke α); test: Electrophysiological analysis of β subunits co-expressed with the α subunit in Xenopus oocytes, inside-out patches; format: cell-based; settings: for changes in the kinetics and voltage dependence of the channels formed by α subunits / V1/2 (half-maximal activation, Boltzmann fit to normalized conductances): inside-out patches, internal Ca2+ 30 μM; for changes in the kinetics and voltage dependence of the channels formed by α subunits: α and β cRNAs 1:10; for shift of the voltage dependence compared to channels containing only α subunits: micromolar intracellular Ca2+; for inactivation of calcium sensitive potassium currents: co-expressed with the α subunit; for V1/2 (half-maximal activation, Boltzmann fit to normalized conductances): α and β cRNAs 1:10 (β in excess), α subunit alone 20 mV
Method: The voltage clamp protocol consisted of a pre-pulse to −160 mV (200 ms), followed by 20 mV depolarizing steps from −80 to +80 mV (500 ms); holding potential was −80 mV; internal Ca^2+ was 30 μM. […] FIG. 7B: Boltzmann equations were fit to normalized conductances for the records shown in 7A, which were calculated from peak currents and plotted as function of test potential. V1/2 values are: 20 mV (α subunit alone); −55 mV (α+β2 subunit); 45.36 mV (α+β3α subunit); 20 mV (α+β3c subunit). […] Inactivation rates and fractional inactivating current were calculated as described in Example 2.
The β2, β3a, β3b, β3c, and β3d subunits of the human calcium sensitive potassium channel have been expressed in Xenopus oocytes, both by themselves and in combination with an α subunit of a large-conductance calcium-sensitive potassium channel (maxi-K channel). […] The rates of inactivation produced by β2, β3a and β3c are dependent upon voltage and internal calcium concentration; inactivation time constants reach a maximum at high depolarizations and high micromolar calcium for β2, β3a and β3c, τinact ˜30-40 ms at 80 mV with 30 μM intracellular Ca^2+. […] (McManus et al., 1995, Neuron 14:645-650).
Electrophysiological analysis: cRNAs were synthesized in vitro from plasmids encoding human Slowpoke α or the β2, β3a, β3b, β3c, or β3d subunits and injected into Xenopus oocytes (1.5 ng/oocyte of α subunit RNA +/−β subunit RNA at 1, 5, or 10× molar excess). Calcium sensitive potassium currents were recorded in inside-out patches. Recordings were performed under ionic conditions of symmetrical potassium. The standard pipette and bath solutions contained 116 mM potassium gluconate, 4 mM potassium chloride, 10 mM HEPES, pH 7.2. CaCl2 was added to the bath solution to give final concentrations of free ionized calcium of 3-30 μM, taking into account the stability constant for calcium gluconate (15.9 M^−1). Currents were recorded using an EPC-7 amplifier (HEKA). The pClamp6.0 program (Axon Instruments) was used to generate voltage-clamp commands for data acquisition, and for analysis. NPO-voltage relations were determined at 3, 10 and 30 μM bath calcium using two methods: (1) calculation of macroscopic conductance from peak or steady-state currents at test potentials (−80 to 80 mV), or (2) measurement or calculation of tail currents peaks (−80 mV) at test potentials. Boltzmann functions were fit to the data and used to derive the half-maximal activation parameter (V1/2). Maximal inactivation parameters (30 μM Ca^2+ and 80 mV) were calculated from current traces or averaged current traces. Inactivation rates were determined from single exponential fits. Fractional non-inactivating current was calculated as steady-state/peak current; fractional inactivating current was estimated as peak current minus steady-state current divided by peak current.

| Molecule | inactivation of calcium sensitive potassium currents [1] | changes in the kinetics and voltage dependence of the channels formed by α subunits [2] | shift of the voltage dependence compared to channels containing only α subunits [2] | inactivation of calcium sensitive potassium currents [2] | V1/2 (half-maximal activation, Boltzmann fit to normalized conductances) [2] | shift in the voltage dependence of activation ([2]; towards negative potentials, with 30 μM Ca2+ in the bath) |
| --- | --- | --- | --- | --- | --- | --- |
| B1 | do not induce inactivation | – | – | – | – | – |
| B2 | – | did not induce noticeable changes | do not shift the voltage dependence | – | – | – |
| B3 | – | – | – | induce inactivation | −55 mV | ~80 mV |
| B4 | – | – | do not shift the voltage dependence | induce inactivation | 45.36 mV | – |
| B5 | – | did not induce noticeable changes | do not shift the voltage dependence | – | – | – |
| B6 | – | – | do not shift the voltage dependence | induce inactivation | 20 mV | – |
